# Target: the molecule itself
# Assay: cryo-EM structure
protein,measurement,value
human GPR156 (receptor) MEPEINCSELCDSFPGQELDRRPLHDLCKTTITSSHHSSKTISSLSPVLLGIVWTFLSCGLLLILFFLAFTIHCRKNRIVKMSSPNLNIVTLLGSCLTYSSAYLFGIQDVLVGSSMETLIQTRLSMLCIGTSLVFGPILGKSWRLYKVFTQRVPDKRVIIKDLQLLGLVAALLMADVILLMTWVLTDPIQCLQILSVSMTVTGKDVSCTSTSTHFCASRYSDVWIALIWGCKGLLLLYGAYLAGLTGHVSSPPVNQSLTIMVGVNLLVLAAGLLFVVTRYLHSWPNLVFGLTSGGIFVCTTTINCFIFIPQLKQWKAFEEENQTIRRMAKYFSTPNKSFHTQYGEEENCHPRGEKSSMERLLTEKNAVIESLQEQVNNAKEKIVRLMSAECTYDLPEGAAPPASSPNKDVQAVASVHTLAAAQGPSGHLSDFQNDPGMAARDSQCTSGPSSYAQSLEGPGKDSSFSPGKEEKISDSKDFSDHLDSGCSQKPWTEQSLGPERGDQVPMNPSQSLLPERGGSDPQRQRHLENSEEPPERRSRVSSVIREKLQEVLQDLGLGPEASLSTAPSCHQQTWKNSAAFSPQKMPLSKELGFSPYMVRRRRAAQRARSHFPGSAPSSVGHRANRTVPGAHSRLHVQNGDSPSLAPQTTDSRVRRPSSRKPSLPSDPQDRPGTLEGSKQSQTEPEGARGSKAAFLRQPSGSGRAPSPAAPCLSKASPDLPEQWQLWPPVPSGCASLSSQHSYFDTESSSSDEFFCRCHRPYCEICFQSSSDSSDSGTSDTDPEPTGGLASWEKLWARSKPIVNFKDDLKPTLV,stoichiometry N,2
